Reference: publication PMC5454378, “Histone deacetylase 10 structure and molecular function as a polyamine deacetylase” (Nature Communications, 2017)

Tests used:
Experiment in all cases: purified protein, by the assay type
[1] = substrate: CC(=O)NCCCC[C@H](NC(=O)[C@H](C)NC(=O)CNC(C)=O)C(=O)Nc1ccc2c(C)cc(=O)oc2c1; parameters: fluorogenic AMC-conjugated acetyllysine peptide deacetylation, steady-state kinetics
From the text: To determine steady-state kinetic parameters for the hydrolysis of a variety of acetylpolyamine and acetyllysine substrates, we prepared full-length recombinant HDAC10 from human (H. sapiens, hHDAC10) and zebrafish (D. rerio, zHDAC10). The CDs of these orthologues are highly similar based on 63%/79% sequence identity/similarity; only full-length constructs yielded soluble proteins. We first assayed the lysine deacetylase activity of these constructs against two commercially available aminomethylcoumarin (AMC)-conjugated fluorogenic acetyllysine peptides, GAK(ac)-AMC and RGK(ac)-AMC (molecular structures of all substrates are shown in Supplementary Fig. 2). […] These measurements were consistent with earlier studies reporting that HDAC10 activity was not measurable using fluorogenic peptide substrates. We also tested activity with 11 non-fluorogenic acetyllysine substrates using a […] chromatography–mass spectrometry (LC–MS)-based discontinuous assay[17] to avoid potential steric clashes that might occur with the bulky AMC group. These substrates included K(ac)NL and GAK(ac)NLQ, which mimic the peptide segment containing K73 in the proposed HDAC10 substrate MutS homologue 2 (MSH2)[22]. Again, we observed no or very low catalytic activity (Fig. 2 and Supplementary Table 1). In comparison with its closest relative, the cytosolic isozyme HDAC6 (ref. [17]), HDAC10 was clearly not an efficient lysine deacetylase.

[2] = substrate: CC(=O)NCCCCCCCCN; parameters: steady-state kinetics of acetylpolyamine deacetylation, discontinuous LC-MS after dansyl chloride derivatization; details: 50.0 °C
Method: (§1) To study steady-state kinetics with non-fluorogenic peptide substrates and acetylpolyamines, a discontinuous LC–MS was employed based on the protocol of assaying nonfluorogenic acetyllysine peptide substrates for HDAC6 (ref. [17]). Assays were performed in triplicate. Briefly, 5 μl of enzyme (0.050–20 μM) in HEPES buffer (20 mM HEPES (pH 7.5), 100 mM NaCl, 5 mM KCl, 1 mM MgCl2) was added to 35 μl of substrate solution to initiate the reaction. After incubation for 15–60 min at room temperature, the reaction was quenched by addition of 50 μl of 20 mM dansyl chloride dissolved in acetonitrile followed by 10 μl of NaHCO3 (1.6 M, pH 10.0). The deacetylation products were derivatized with dansyl chloride at 50 °C for 2 hrs. The deacetylation products were detected by LC–MS using a Waters SQD equipped with an Acquity UPLC (Waters, Milford, MA, USA) and quantified by using the standard curves generated from the mass signals of the corresponding deacetylated polyamines and peptides. Inhibition of HDAC10 activity was measured by using 0.49 μM zHDAC10 with 192 μM N^8-acetylspermidine. Data were analysed by logistic regression for IC50 determination and the inhibition constant Ki was calculated based on the Cheng-Prusoff equation, Ki=IC50 / (1+[S]/KM)[45]. Assays were performed in triplicate at room temperature. We next tested the PDAC activity of hHDAC10 and zHDAC10 against several polyamine substrates using the LC–MS assay (Fig. 2, Supplementary Fig. 3 and Supplementary Table 1). […] For hHDAC10 and zHDAC10, kcat/KM=2,900±200 and 4,600±300 M^−1 s^−1, respectively; in comparison, N^1-acetylspermidine was a poor substrate with kcat/KM=24±5 and 7±2 M^−1 s^−1, respectively. Substrate specificity trends observed for zHDAC10 and hHDAC10 matched those of the previously reported mammalian N^8-acetylspermidine deacetylase activity. […] As a negative control, we examined the N^8-acetylspermidine deacetylase activity of human and zebrafish HDAC6 (ref. [17]). HDAC6 preferentially catalyses the deacetylation of the peptide substrate RGK(ac)-AMC with a catalytic efficiency >100-fold greater than that for the deacetylation of N^8-acetylspermidine. Therefore, HDAC6 is clearly an acetyllysine deacetylase and HDAC10 is an N^8-acetylspermidine deacetylase. It is notable that the molecular function of HDAC10 coincides with the cellular function of the cytosolic PDAC indicated in Fig. 1a.

[3] = substrate: CC(=O)NCCCCCN; parameters: steady-state kinetics of acetylpolyamine deacetylation, discontinuous LC-MS after dansyl chloride derivatization; details: 50.0 °C
Method: as §1

[4] = substrate: CC(=O)NCCCNCCCCN; parameters: steady-state kinetics of acetylpolyamine deacetylation, discontinuous LC-MS after dansyl chloride derivatization; details: 50.0 °C
Method: as §1

[5] = substrate: CC(=O)NCCCNCCCCNCCCN; parameters: steady-state kinetics of acetylpolyamine deacetylation, discontinuous LC-MS after dansyl chloride derivatization; details: 50.0 °C
Method: as §1

[6] = substrate: CC(=O)NCCCN; parameters: steady-state kinetics of acetylpolyamine deacetylation, discontinuous LC-MS after dansyl chloride derivatization; details: 50.0 °C
Method: as §1

[7] = substrate: CC(=O)NCCCCNCCCN; parameters: steady-state kinetics of acetylpolyamine deacetylation, discontinuous LC-MS after dansyl chloride derivatization; details: 50.0 °C
Method: as §1

[8] = substrate: CC(=O)NCCCC[C@H](NC(C)=O)C(N)=O; parameters: discontinuous LC-MS deacetylation assay, dansylated product quantified, steady-state kinetics; details: 50.0 °C
Method: To study steady-state kinetics with non-fluorogenic peptide substrates and acetylpolyamines, a discontinuous LC–MS was employed based on the protocol of assaying nonfluorogenic acetyllysine peptide substrates for HDAC6 (ref. [17]). Assays were performed in triplicate. Briefly, 5 μl of enzyme (0.050–20 μM) in HEPES buffer (20 mM HEPES (pH 7.5), 100 mM NaCl, 5 mM KCl, 1 mM MgCl2) was added to 35 μl of substrate solution to initiate the reaction. After incubation for 15–60 min at room temperature, the reaction was quenched by addition of 50 μl of 20 mM dansyl chloride dissolved in acetonitrile followed by 10 μl of NaHCO3 (1.6 M, pH 10.0). The deacetylation products were derivatized with dansyl chloride at 50 °C for 2 hrs. The deacetylation products were detected by LC–MS using a Waters SQD equipped with an Acquity UPLC (Waters, Milford, MA, USA) and quantified by using the standard curves generated from the mass signals of the corresponding deacetylated polyamines and peptides. Inhibition of HDAC10 activity was measured by using 0.49 μM zHDAC10 with 192 μM N^8-acetylspermidine. Data were analysed by logistic regression for IC50 determination and the inhibition constant Ki was calculated based on the Cheng-Prusoff equation, Ki=IC50 / (1+[S]/KM)[45]. Assays were performed in triplicate at room temperature.

[9] = substrate: CC(=O)NCCCCN; parameters: steady-state kinetics of acetylpolyamine deacetylation, discontinuous LC-MS after dansyl chloride derivatization; details: 50.0 °C
Method: as §1

Protein	Km [1]	kcat [1]	kcat/Km [1]	Km [3]	kcat [3]	kcat/Km [3]	Km [7]	kcat [7]	kcat/Km [7]	further results
hHDAC6 CD12 (Homo sapiens) (protein, both catalytic domains CD1-CD2) MTSTGQDSTTTRQRRSRQNPQSPPQDSSVTSKRNIKKGAVPRSIPNLAEVKKKGKMKKLGQAMEEDLIVGLQGMDLNLEAEALAGTGLVLDEQLNEFHCLWDDSFPEGPERLHAIKEQLIQEGLLDRCVSFQARFAEKEELMLVHSLEYIDLMETTQYMNEGELRVLADTYDSVYLHPNSYSCACLASGSVLRLVDAVLGAEIRNGMAIIRPPGHHAQHSLMDGYCMFNHVAVAARYAQQKHRIRRVLIVDWDVHHGQGTQFTFDQDPSVLYFSIHRYEQGRFWPHLKASNWSTTGFGQGQGYTINVPWNQVGMRDADYIAAFLHVLLPVALEFQPQLVLVAAGFDALQGDPKGEMAATPAGFAQLTHLLMGLAGGKLILSLEGGYNLRALAEGVSASLHTLLGDPCPMLESPGAPCRSAQASVSCALEALEPFWEVLVRSTETVERDNMEEDNVEESEEEGPWEPPVLPILTWPVLQSRTGLVYDQNMMNHCNLWDSHHPEVPQRILRIMCRLEELGLAGRCLTLTPRPATEAELLTCHSAEYVGHLRATEKMKTRELHRESSNFDSIYICPSTFACAQLATGAACRLVEAVLSGEVLNGAAVVRPPGHHAEQDAACGFCFFNSVAVAARHAQTISGHALRILIVDWDVHHGNGTQHMFEDDPSVLYVSLHRYDHGTFFPMGDEGASSQIGRAAGTGFTVNVAWNGPRMGDADYLAAWHRLVLPIAYEFNPELVLVSAGFDAARGDPLGGCQVSPEGYAHLTHLLMGLASGRIILILEGGYNLTSISESMAACTRSLLGDPPPLLTLPRPPLSGALASITETIQVHRRYWRSLRVMKVEDREGPSSSKLVTKKAPQPAKPRLAERMTTREKKVLEAGMGKVTSASFGEESTPGQTNSETAVVALTQDQPSEAATGGATLAQTISEAAIGGAMLGQTTSEEAVGGATPDQTTSEETVGGAILDQTTSEDAVGGATLGQTTSEEAVGGATLAQTTSEAAMEGATLDQTTSEEAPGGTELIQTPLASSTDHQTPPTSPVQGTTPQISPSTLIGSLRTLELGSESQGASESQAPGEENLLGEAAGGQDMADSMLMQGSRGLTDQAIFYAVTPLPWCPHLVAVCPIPAAGLDVTQPCGDCGTIQENWVCLSCYQVYCGRYINGHMLQHHGNSGHPLVLSYIDLSAWCYYCQAYVHHQALLDVKNIAHQNKFGEDMPHPH	14 ± 2 µM	0.039 ± 0.007 s⁻¹	2800 ± 400 M⁻¹ s⁻¹	–	–	–	–	–	–	–
acetylpolyamine amidohydrolase (APAH) (Mycoplana ramosa) (protein) MRVIFSEDHKLRNAKTELYGGELVPPFEAPFRAEWILAAVKEAGFDDVVAPARHGLETVLKVHDAGYLNFLETAWDRWKAAGYKGEAIATSFPVRRTSPRIPTDIEGQIGYYCNAAETAISPGTWEAALSSMASAIDGADLIAAGHKAAFSLCRPPGHHAGIDMFGGYCFINNAAVAAQRLLDKGAKKIAILDVDFHHGNGTQDIFYERGDVFFASLHGDPAEAFPHFLGYAEETGKGAGAGTTANYPMGRGTPYSVWGEALTDSLKRIAAFGAEAIVVSLGVDTFEQDPISFFKLTSPDYITMGRTIAASGVPLLVVMEGGYGVPEIGLNVANVLKGVAG	120 ± 20 µM	0.0067 ± 0.0005 s⁻¹	50 ± 5 M⁻¹ s⁻¹	22 ± 4 µM	1.5 ± 0.1 s⁻¹	68000 ± 7000 M⁻¹ s⁻¹	80 ± 20 µM	2.5 ± 0.3 s⁻¹	30000 ± 5000 M⁻¹ s⁻¹	Km [2]: 110 ± 20 µM; kcat [2]: 1.1 ± 0.1 s⁻¹; kcat/Km [2]: 10000 ± 1000 M⁻¹ s⁻¹; Km [4]: 70 ± 20 µM; kcat [4]: 0.6 ± 0.05 s⁻¹; kcat/Km [4]: 7400 ± 600 M⁻¹ s⁻¹; Km [5]: 60 ± 10 µM; kcat [5]: 0.2 ± 0.01 s⁻¹; kcat/Km [5]: 2500 ± 900 M⁻¹ s⁻¹; Km [6]: 180 ± 60 µM; kcat [6]: 1.3 ± 0.2 s⁻¹; kcat/Km [6]: 7000 ± 1000 M⁻¹ s⁻¹; Km [8]: 220 ± 70 µM; kcat [8]: 0.13 ± 0.02 s⁻¹; kcat/Km [8]: 600 ± 100 M⁻¹ s⁻¹
zHDAC10Δ (Danio rerio) (protein, proteolytically (trypsin) nicked zHDAC10, heterodimer of PDAC and pseudo-deacetylase domains) MASGSALIFDEEMSRYKLLWTDPACEIEVPERLTVSYEALRTHGLAQRCKAVPVRQATEQEILLAHSEEYLEAVKQTPGMNVEELMAFSKKYNDVYFHQNIYHCAKLAAGATLQLVDSVMKREVRNGMALVRPPGHHSQRSAANGFCVFNNVAIAALYAKKNYNLNRILIVDWDVHHGQGIQYCFEEDPSVLYFSWHRYEHQSFWPNLPESDYSSVGKGKGSGFNINLPWNKVGMTNSDYLAAFFHVLLPVAYEFDPELVIVSAGFDSAIGDPEGEMCALPEIFAHLTHLLMPLAAGKMCVVLEGGYNLTSLGQSVCQTVHSLLGDPTPRISGLGTACDSALESIQNVRNVQSSYWSSFKHLAQSETNPKRPRLDATNGGPKESSEPASESNPKKTAQDIVWPEPLKRMPASVRTVVVPPPGVELTLPKNCQHSGDISESTAKEVQRIRDKHFHDLTDQNILRSLGNIISVLDRMMRSDEVCNGCVVVSDLSVSVQCALQHALTEPAERVLVVYVGDGELPVKTNDGKVFLVQICTKETEDKCVNRLSLCLREGESLTAGFMQALLGLILPVAYEFNPALVLGIVGETAAKTGLMTVWGHMTCLIQGLARGRTLTLLQGYDKDLLELTVSALSGASISPLGPLRALKPEDVEMMEKQRQRLQERWGLLRCTVSES	40 ± 20 µM	–	–	60 ± 10 µM	0.036 ± 0.002 s⁻¹	600 ± 80 M⁻¹ s⁻¹	70 ± 30 µM	0.06 ± 0.007 s⁻¹	800 ± 100 M⁻¹ s⁻¹	Km [9]: 80 ± 30 µM; kcat [9]: 0.081 ± 0.009 s⁻¹; kcat/Km [9]: 980 ± 90 M⁻¹ s⁻¹
